Assay results: paper PMC9482650, “Quantitative fragmentomics allow affinity mapping of interactomes” (Nature Communications, 2022)
Blank lines part the entries; values can stand above or below the binder they belong to.

How the values were obtained:
Test in all cases: holdup assay
Parameters in all cases: key: below the threshold = too weak to quantify, mostly under pKd 3.1 to 4
ARHGEF11, O15085 = biological target: T1, ARHGEF11, O15085
T1 sequence (O15085 42-136, limits assumed, looked up): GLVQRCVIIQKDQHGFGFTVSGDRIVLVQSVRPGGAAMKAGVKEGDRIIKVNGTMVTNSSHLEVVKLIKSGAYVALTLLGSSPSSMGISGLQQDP

LIMK2, P53671 = biological target: LIMK2, P53671
Sequence of LIMK2, P53671 (P53671 143-248): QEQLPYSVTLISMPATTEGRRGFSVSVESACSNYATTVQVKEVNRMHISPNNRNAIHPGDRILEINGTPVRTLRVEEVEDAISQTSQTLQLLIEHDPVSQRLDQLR

DLG4_1, P78352 = biological target: DLG4_1, P78352
Sequence of DLG4_1, P78352 (P78352 62-152): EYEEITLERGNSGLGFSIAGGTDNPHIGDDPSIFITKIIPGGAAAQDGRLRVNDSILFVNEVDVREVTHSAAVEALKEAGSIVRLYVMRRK

MAGI1_1, Q96QZ7 = biological target: MAGI1_1, Q96QZ7
Sequence of MAGI1_1, Q96QZ7 (Q96QZ7 1-106): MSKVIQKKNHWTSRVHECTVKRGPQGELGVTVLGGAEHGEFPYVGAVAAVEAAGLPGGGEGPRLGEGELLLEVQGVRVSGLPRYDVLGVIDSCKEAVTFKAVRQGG

PARD3_3, Q8TEW0 = biological target: PARD3_3, Q8TEW0
Sequence of PARD3_3, Q8TEW0 (Q8TEW0 582-685): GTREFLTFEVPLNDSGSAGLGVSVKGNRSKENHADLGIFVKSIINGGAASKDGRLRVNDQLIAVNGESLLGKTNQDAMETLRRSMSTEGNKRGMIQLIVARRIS

GRIP2_3, Q9C0E4 = biological target: GRIP2_3, Q9C0E4
Sequence of GRIP2_3, Q9C0E4 (Q9C0E4 238-339): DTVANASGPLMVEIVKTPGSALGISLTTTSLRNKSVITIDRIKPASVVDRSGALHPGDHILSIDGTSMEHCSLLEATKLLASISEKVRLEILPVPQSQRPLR

DLG2_3, Q15700 = biological target: DLG2_3, Q15700
RAPGEF6, Q8TEU7 = biological target: T2, RAPGEF6, Q8TEU7
T2 sequence (Q8TEU7 525-625, limits assumed, looked up): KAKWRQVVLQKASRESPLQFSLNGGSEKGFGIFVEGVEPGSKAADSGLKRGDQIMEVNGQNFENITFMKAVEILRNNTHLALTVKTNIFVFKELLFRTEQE

RADIL, Q96JH8 = biological target: T3, RADIL, Q96JH8
T3 sequence (Q96JH8 971-1071, limits assumed, looked up): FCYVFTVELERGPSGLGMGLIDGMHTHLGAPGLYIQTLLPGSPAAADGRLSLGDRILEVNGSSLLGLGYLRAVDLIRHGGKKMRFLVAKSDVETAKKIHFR

APBA2_1, Q99767 = biological target: T4, APBA2_1, Q99767
T4 sequence (Q99767 563-664, limits assumed, looked up): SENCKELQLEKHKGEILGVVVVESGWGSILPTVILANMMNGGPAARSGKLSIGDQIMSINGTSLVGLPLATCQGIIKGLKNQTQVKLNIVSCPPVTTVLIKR

DLG4_2, P78352 = biological target: DLG4_2, P78352
Sequence of DLG4_2, P78352 (P78352 155-259): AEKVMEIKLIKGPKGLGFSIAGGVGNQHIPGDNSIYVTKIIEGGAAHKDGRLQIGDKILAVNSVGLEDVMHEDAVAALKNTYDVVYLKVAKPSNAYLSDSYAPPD

TX1BP3, O14907 = biological target: T5, TX1BP3, O14907
T5 sequence (O14907 10-122, limits assumed, looked up): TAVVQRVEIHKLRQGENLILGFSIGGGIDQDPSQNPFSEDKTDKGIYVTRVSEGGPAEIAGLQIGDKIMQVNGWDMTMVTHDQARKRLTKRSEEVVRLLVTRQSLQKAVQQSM

LIN7A, O14910 = biological target: T6, LIN7A, O14910
T6 sequence (O14910 103-200, limits assumed, looked up): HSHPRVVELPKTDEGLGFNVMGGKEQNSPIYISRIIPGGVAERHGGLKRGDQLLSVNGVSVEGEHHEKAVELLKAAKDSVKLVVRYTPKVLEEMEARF

SYNJ2BP, P57105 = biological target: T7, SYNJ2BP, P57105
T7 sequence (P57105 8-110, limits assumed, looked up): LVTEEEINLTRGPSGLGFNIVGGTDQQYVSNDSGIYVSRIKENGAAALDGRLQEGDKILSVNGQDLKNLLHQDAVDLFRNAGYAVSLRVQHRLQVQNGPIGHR

HTRA1, Q92743 = biological target: HTRA1, Q92743
Sequence of HTRA1, Q92743 (Q92743 360-477): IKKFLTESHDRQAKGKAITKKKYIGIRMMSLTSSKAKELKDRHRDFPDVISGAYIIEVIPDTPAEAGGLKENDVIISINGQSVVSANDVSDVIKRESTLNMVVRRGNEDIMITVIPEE

MAGI2_3, Q86UL8 = biological target: MAGI2_3, Q86UL8
Sequence of MAGI2_3, Q86UL8 (Q86UL8 600-682): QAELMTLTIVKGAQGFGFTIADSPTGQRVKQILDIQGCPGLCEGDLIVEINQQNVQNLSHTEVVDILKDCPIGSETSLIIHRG

DLG3_2, Q92796 = biological target: T8, DLG3_2, Q92796
T8 sequence (Q92796 221-321, limits assumed, looked up): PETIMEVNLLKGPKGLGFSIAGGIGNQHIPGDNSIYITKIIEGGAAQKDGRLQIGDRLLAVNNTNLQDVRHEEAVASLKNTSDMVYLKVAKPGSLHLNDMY

PDZRN4_1, Q6ZMN7 = biological target: PDZRN4_1, Q6ZMN7
Sequence of PDZRN4_1, Q6ZMN7 (Q6ZMN7 213-318): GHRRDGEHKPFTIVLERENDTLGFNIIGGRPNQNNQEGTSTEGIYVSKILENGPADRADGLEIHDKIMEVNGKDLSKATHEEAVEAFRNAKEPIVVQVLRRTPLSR

SNTG1, Q9NSN8 = biological target: T9, SNTG1, Q9NSN8
T9 sequence (Q9NSN8 52-150, limits assumed, looked up): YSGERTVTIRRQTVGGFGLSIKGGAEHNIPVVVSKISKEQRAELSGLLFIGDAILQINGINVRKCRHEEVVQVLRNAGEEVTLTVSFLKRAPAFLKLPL

NHERF2_2, Q15599 = biological target: NHERF2_2, Q15599
Sequence of NHERF2_2, Q15599 (Q15599 142-238): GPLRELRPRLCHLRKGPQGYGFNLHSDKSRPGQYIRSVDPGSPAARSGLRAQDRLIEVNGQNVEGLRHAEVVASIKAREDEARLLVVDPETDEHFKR

PTPN3, P26045 = biological target: PTPN3, P26045
Sequence of PTPN3, P26045 (P26045 505-587): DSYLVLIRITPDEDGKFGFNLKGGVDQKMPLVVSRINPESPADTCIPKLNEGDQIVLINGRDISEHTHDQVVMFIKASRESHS

GRIP2_6, Q9C0E4 = biological target: GRIP2_6, Q9C0E4
Sequence of GRIP2_6, Q9C0E4 (Q9C0E4 648-740): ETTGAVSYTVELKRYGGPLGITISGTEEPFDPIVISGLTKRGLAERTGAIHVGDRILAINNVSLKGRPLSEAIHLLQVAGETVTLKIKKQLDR

ARHGAP21, Q5T5U3 = biological target: T10, ARHGAP21, Q5T5U3
T10 sequence (Q5T5U3 45-169, limits assumed, looked up): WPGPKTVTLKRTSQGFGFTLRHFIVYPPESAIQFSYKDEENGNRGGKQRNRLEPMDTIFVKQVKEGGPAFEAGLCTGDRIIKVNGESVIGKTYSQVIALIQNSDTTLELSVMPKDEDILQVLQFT

SCRIB_1, Q14160 = biological target: SCRIB_1, Q14160
Sequence of SCRIB_1, Q14160 (Q14160 718-814): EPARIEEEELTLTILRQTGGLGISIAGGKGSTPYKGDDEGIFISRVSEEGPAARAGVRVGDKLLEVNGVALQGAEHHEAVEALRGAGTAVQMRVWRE

DLG2_2, Q15700 = biological target: DLG2_2, Q15700
MAST1, Q9Y2H9 = biological target: MAST1, Q9Y2H9
Sequence of MAST1, Q9Y2H9 (Q9Y2H9 962-1065): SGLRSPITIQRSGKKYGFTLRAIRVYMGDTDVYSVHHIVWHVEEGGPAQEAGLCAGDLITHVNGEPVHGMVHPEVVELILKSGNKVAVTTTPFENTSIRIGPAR

IL16_1, Q14005 = biological target: IL16_1, Q14005
Sequence of IL16_1, Q14005 (Q14005 210-306): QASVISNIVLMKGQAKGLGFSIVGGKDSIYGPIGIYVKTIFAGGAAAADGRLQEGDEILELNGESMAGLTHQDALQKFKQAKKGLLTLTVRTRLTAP

[1] = plain residues with an end cap or a label only (N-terminal biotin on a linker: ahx)
[2] = plain residues with an end cap or a label only (N-terminal biotin on a linker: ttds)

pKd (ARHGEF11, O15085; [1]): 3.75
pKd (LIMK2, P53671; [1]): below the threshold
pKd (DLG4_1, P78352; [1]): 4.21
pKd (MAGI1_1, Q96QZ7; [1]): below the threshold
pKd (PARD3_3, Q8TEW0; [1]): 3.73
pKd (GRIP2_3, Q9C0E4; [1]): below the threshold
pKd (DLG2_3, Q15700; [1]): 4.44
pKd (RAPGEF6, Q8TEU7; [1]): below the threshold
pKd (RADIL, Q96JH8; [1]): below the threshold
pKd (APBA2_1, Q99767; [1]): below the threshold
pKd (DLG4_2, P78352; [1]): 4.7
pKd (TX1BP3, O14907; [1]): 3.8
pKd (LIN7A, O14910; [1]): below the threshold
pKd (SYNJ2BP, P57105; [1]): 4.42
pKd (HTRA1, Q92743; [1]): 3.51
pKd (MAGI2_3, Q86UL8; [1]): below the threshold
pKd (DLG3_2, Q92796; [1]): 4.72
pKd (PDZRN4_1, Q6ZMN7; [1]): below the threshold
pKd (SNTG1, Q9NSN8; [1]): below the threshold
pKd (NHERF2_2, Q15599; [1]): below the threshold
pKd (PTPN3, P26045; [1]): 4.16
pKd (GRIP2_6, Q9C0E4; [1]): below the threshold
pKd (ARHGAP21, Q5T5U3; [1]): 3.49
pKd (SCRIB_1, Q14160; [1]): 3.79
pKd (DLG2_2, Q15700; [1]): 3.88
pKd (MAST1, Q9Y2H9; [1]): 3.67
pKd (IL16_1, Q14005; [1]): below the threshold
Binder: HSATSVHTSV [MTMR1, Q13613]

pKd (ARHGEF11, O15085; [2]): 3.48
pKd (LIMK2, P53671; [2]): below the threshold
pKd (DLG4_1, P78352; [2]): below the threshold
pKd (MAGI1_1, Q96QZ7; [2]): below the threshold
pKd (PARD3_3, Q8TEW0; [2]): below the threshold
pKd (GRIP2_3, Q9C0E4; [2]): below the threshold
pKd (DLG2_3, Q15700; [2]): 4.21
pKd (RAPGEF6, Q8TEU7; [2]): below the threshold
pKd (RADIL, Q96JH8; [2]): below the threshold
pKd (APBA2_1, Q99767; [2]): below the threshold
pKd (DLG4_2, P78352; [2]): 4.45
pKd (TX1BP3, O14907; [2]): 4.26
pKd (LIN7A, O14910; [2]): below the threshold
pKd (SYNJ2BP, P57105; [2]): 4.69
pKd (HTRA1, Q92743; [2]): below the threshold
pKd (MAGI2_3, Q86UL8; [2]): below the threshold
pKd (DLG3_2, Q92796; [2]): 4.28
pKd (PDZRN4_1, Q6ZMN7; [2]): 4.71
pKd (SNTG1, Q9NSN8; [2]): below the threshold
pKd (NHERF2_2, Q15599; [2]): 4.09
pKd (PTPN3, P26045; [2]): 4.93
pKd (GRIP2_6, Q9C0E4; [2]): below the threshold
pKd (ARHGAP21, Q5T5U3; [2]): below the threshold
pKd (SCRIB_1, Q14160; [2]): 4.94
pKd (DLG2_2, Q15700; [2]): 4.25
pKd (MAST1, Q9Y2H9; [2]): 4.65
pKd (IL16_1, Q14005; [2]): below the threshold
Binder: GARVSKETPL [MAPK12, P53778]

pKd (ARHGEF11, O15085; [2]): below the threshold
pKd (LIMK2, P53671; [2]): below the threshold
pKd (DLG4_1, P78352; [2]): below the threshold
pKd (MAGI1_1, Q96QZ7; [2]): below the threshold
pKd (PARD3_3, Q8TEW0; [2]): 4.22
pKd (GRIP2_3, Q9C0E4; [2]): below the threshold
pKd (DLG2_3, Q15700; [2]): below the threshold
pKd (RAPGEF6, Q8TEU7; [2]): 3.48
pKd (RADIL, Q96JH8; [2]): below the threshold
pKd (APBA2_1, Q99767; [2]): below the threshold
pKd (DLG4_2, P78352; [2]): below the threshold
pKd (TX1BP3, O14907; [2]): below the threshold
pKd (LIN7A, O14910; [2]): below the threshold
pKd (SYNJ2BP, P57105; [2]): below the threshold
pKd (HTRA1, Q92743; [2]): 3.73
pKd (MAGI2_3, Q86UL8; [2]): below the threshold
pKd (DLG3_2, Q92796; [2]): below the threshold
pKd (PDZRN4_1, Q6ZMN7; [2]): below the threshold
pKd (SNTG1, Q9NSN8; [2]): 3.49
pKd (NHERF2_2, Q15599; [2]): 5.39
pKd (PTPN3, P26045; [2]): 3.85
pKd (GRIP2_6, Q9C0E4; [2]): below the threshold
pKd (ARHGAP21, Q5T5U3; [2]): 3.56
pKd (SCRIB_1, Q14160; [2]): 5.08
pKd (DLG2_2, Q15700; [2]): below the threshold
pKd (MAST1, Q9Y2H9; [2]): 4.19
pKd (IL16_1, Q14005; [2]): below the threshold
Binder: DLDEEEDTHL [PODXL, O00592]
